Target: recombinant bovine NX-1α protein (btNX-1α), ectodomain L1-L6 his6 (bovine, UniProt Q28146 31-1454)
Assay: co-IP

Sequence of recombinant bovine NX-1α protein (btNX-1α), ectodomain L1-L6 his6 (Q28146 31-1454): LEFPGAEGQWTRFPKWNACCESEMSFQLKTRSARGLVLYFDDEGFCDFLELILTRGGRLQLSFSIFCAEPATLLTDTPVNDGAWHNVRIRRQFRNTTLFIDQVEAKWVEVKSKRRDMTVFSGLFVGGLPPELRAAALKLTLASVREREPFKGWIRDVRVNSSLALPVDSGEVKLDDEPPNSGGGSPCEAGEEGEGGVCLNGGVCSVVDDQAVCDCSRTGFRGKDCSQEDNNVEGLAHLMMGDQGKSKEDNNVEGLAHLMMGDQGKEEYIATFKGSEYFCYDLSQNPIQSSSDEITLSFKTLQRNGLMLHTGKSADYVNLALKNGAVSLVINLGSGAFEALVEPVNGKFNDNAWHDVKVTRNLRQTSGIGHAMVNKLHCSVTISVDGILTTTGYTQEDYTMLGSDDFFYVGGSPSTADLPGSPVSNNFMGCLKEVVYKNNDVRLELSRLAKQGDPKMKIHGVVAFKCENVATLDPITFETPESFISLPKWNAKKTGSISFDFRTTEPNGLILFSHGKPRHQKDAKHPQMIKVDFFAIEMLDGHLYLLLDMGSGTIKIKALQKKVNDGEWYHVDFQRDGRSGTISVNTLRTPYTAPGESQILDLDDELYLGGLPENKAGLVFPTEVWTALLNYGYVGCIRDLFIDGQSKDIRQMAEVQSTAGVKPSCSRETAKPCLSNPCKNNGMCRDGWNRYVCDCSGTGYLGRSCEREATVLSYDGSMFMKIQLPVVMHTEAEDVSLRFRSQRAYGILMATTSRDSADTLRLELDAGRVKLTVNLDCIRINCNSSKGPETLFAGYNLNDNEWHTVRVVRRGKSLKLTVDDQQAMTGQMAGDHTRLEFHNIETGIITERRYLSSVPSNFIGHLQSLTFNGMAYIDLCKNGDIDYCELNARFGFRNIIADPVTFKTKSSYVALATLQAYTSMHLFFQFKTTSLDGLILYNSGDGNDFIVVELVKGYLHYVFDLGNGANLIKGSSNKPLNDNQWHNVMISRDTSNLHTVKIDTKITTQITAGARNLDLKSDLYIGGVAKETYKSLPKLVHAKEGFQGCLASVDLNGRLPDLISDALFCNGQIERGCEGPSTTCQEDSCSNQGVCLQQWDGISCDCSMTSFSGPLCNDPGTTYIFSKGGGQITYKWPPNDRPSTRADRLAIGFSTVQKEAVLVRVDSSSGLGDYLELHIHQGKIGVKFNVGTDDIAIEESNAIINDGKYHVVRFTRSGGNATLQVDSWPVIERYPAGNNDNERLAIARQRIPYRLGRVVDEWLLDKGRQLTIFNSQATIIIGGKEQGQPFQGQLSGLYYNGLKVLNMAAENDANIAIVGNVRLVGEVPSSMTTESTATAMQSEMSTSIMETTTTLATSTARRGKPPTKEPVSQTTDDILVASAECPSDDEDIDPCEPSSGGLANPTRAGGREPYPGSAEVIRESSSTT

Kd: ~40 nM
B1: HA-tagged α2δ-3 (mouse) (natural protein, UniProt Q9Z1L5 34-1091, looked up)
chain: EQQIPLSVVKLWASAFGGEIKSIAAKYSGSQLLQKKYKEYEKDVAIEEIDGLQLVKKLAKIMEEMFHKKSEAVRRLVEAAEEAHLKHEFDADLQYEYFNAVLINERDKDGNFLELGKEFILAPNDHFNNLPVNISLSDVQVPTNMYNKDPAIVNGVYWSESLNKVFVDNFDRDPSLIWQYFGSAKGFFRQYPGIKWEPDENGVIAFDCRNRKWYIQAATSPKDVVILVDVSGSMKGLRLTIAKQTVSSILDTLGDDDFFNIITYNEELHYVEPCLNGTLVQADRTNKEHFREHLDKLFAKGIGMLDIALNEAFNILSDFNHTGQGSICSQAIMLITDGAVDTYDTIFAKYNWPDRKVRIFTYLIGREAAFADNLKWMACANKGFFTQISTLADVQENVMEYLHVLSRPKVIDQEHDVVWTEAYIDSTLPQAQKLADDQGLVLMTTVAMPVFSKQNETRSKGILLGVVGTDVPVKELLKTIPKYKLGIHGYAFAITNNGYILTHPELRPLYEEGKKRRKPNYSSVDLSEVEWEDRDDVLRNAMVNRKTGKFSMEVKKTVDKGKRVLVMTNDYYYTDIKGTPFSLGVALSRGHGKYFFRGNVTIEEGLHDLEHPDVSLADEWSYCNTDLHPEHRHLSQLEAIKLYLKGKEPLLQCDKELIQEVLFDAVVSAPIEAYWTSLALNKSENSDKGVEVAFLGTRTGLSRINLFVGAEQLTNQDFLKAGDKENIFNADHFPLWYRRAAEQIAGSFVYSIPFSTGTVNKSNVVTASTSIQLLDERKSPVVAAVGIQMKLEFFQRKFWTASRQCASLDGKCSISCDDETVNCYLIDNNGFILVSEDYTQTGDFFGEVEGAVMNKLLTMGSFKRITLYDYQAMCRANKESSDSAHGLLDPYKAFLSAAKWIMTELVLFLVEFNLCSWWHSDMTAKAQKLKQTLEPCDTEYPAFVSERTIKETTGNIACEDCSKSFVIQQIPSSNLFMVVVDSSCLCESVAPITMAPIEIRYNESLKCERLKAQKIRRRPESCHGFHPEENARECGGASSLQAQAALLLLPLVSSLFSR

From publication PMC5548138 (Neuron, 2017)
